Test results taken from article PMC11772769 (2024).

B1: MBP-SNX17 (full-length, wild-type) [not stated] / Peptide LRP1_(14mer) [modified: 5-FAM (5-carboxyfluorescein) on the N-terminus; 5-FAM (5-carboxyfluorescein) on the N-terminus] [not stated] (parent complex)
chain 1: MHFSIPETESRSGDSGGSAYVAYNIHVNGVLHCRVRYSQLLGLHEQLRKEYGANVLPAFPPKKLFSLTPAEVEQRREQLEKYMQAVRQDPLLGSSETFNSFLRRAQQETQQVPTEEVSLEVLLSNGQKVLVNVLTSDQTEDVLEAVAAKLDLPDDLIGYFSLFLVREKEDGAFSFVRKLQEFELPYVSVTSLRSQEYKIVLRKSYWDSAYDDDVMENRVGLNLLYAQTVSDIERGWILVTKEQHRQLKSLQEKVSKKEFLRLAQTLRHYGYLRFDACVADFPEKDCPVVVSAGNSELSLQLRLPGQQLREGSFRVTRMRCWRVTSSVPLPSGSTSSPGRGRGEVRLELAFEYLMSKDRLQWVTITSPQAIMMSICLQSMVDELMVKKSGGSIRKMLRRRVGGTLRRSDSQQAVKSPPLLESPDATRESMVKLSSKLSAVSLRGIGSPSTDASASDVHGNFAFEGIGDEDL
chain 2: MNVEIGNPTYKMYE

Variants of: B1
Test: fluorescence anisotropy; 5-FAM-labeled LRP1 14-mer peptide

Row | Variant | Kd [nM]
1 | chain 1 N459A, chain 1 F462A | 1500
2 | chain 1 H457A | 3800
